Results reported in PMC11195156 (bioRxiv, 2025).

T1: Escherichia coli sulfite reductase hemoprotein (Escherichia coli K-12, UniProt P17846 1-570)
T1 sequence: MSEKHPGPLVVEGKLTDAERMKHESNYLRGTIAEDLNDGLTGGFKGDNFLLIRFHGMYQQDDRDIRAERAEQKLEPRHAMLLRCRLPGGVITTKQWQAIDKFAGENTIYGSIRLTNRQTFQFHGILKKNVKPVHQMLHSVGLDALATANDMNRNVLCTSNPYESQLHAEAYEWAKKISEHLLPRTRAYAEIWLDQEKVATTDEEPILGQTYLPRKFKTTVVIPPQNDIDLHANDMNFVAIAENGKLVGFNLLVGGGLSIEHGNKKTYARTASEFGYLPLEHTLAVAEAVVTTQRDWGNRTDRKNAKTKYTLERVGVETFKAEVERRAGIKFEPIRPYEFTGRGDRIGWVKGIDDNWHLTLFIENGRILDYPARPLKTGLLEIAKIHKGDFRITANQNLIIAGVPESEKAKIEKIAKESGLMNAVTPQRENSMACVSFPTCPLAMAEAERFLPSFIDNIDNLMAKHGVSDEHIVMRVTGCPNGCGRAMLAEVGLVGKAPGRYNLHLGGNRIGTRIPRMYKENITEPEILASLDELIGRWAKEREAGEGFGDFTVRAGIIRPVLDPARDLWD

B1: SiRFP-60X: sulfite reductase flavoprotein amino acids 52-599 (C162T/C552S/E121C/N556C) (domain or fragment, Escherichia coli K-12, UniProt P38038 52-599, looked up)
chain: AATPAPAAEMPGITIISASQTGNARRVAEALRDDLLAAKLNVKLVNAGDYKFKQIASEKLLIVVTSTQGCGEPPEEAVALHKFLFSKKAPKLENTAFAVFSLGDSSYEFFTQSGKDFDSKLAELGGERLLDRVDADVEYQAAASEWRARVVDALKSRAPVAAPSQSVATGAVNEIHTSPYSKDAPLVASLSVNQKITGRNSEKDVRHIEIDLGDSGMRYQPGDALGVWYQNDPALVKELVELLWLKGDEPVTVEGKTLPLNEALQWHFELTVNTANIVENYATLTRSETLLPLVGDKAKLQHYAATTPIVDMVRFSPAQLDAEALINLLRPLTPRLYSIASSQAEVENEVHVTVGVVRYDVEGRARAGGASSFLADRVEEEGEVRVFIEHNDNFRLPANPETPVIMIGPGTGIAPFRAFMQQRAADEAPGKNWLFFGNPHFTEDFLYQVEWQRYVKDGVLTRIDLAWSRDQKEKVYVQDKLREQGAELWRWINDGAHIYVSGDACRMAKDVEQALLEVIAEFGGMDTEAADEFLSELRVERRYQRDVY
B2: SiRFP-60Δ: sulfite reductase flavoprotein amino acids 52-599/Δ212-217 (Δ-AAPSQS) (domain or fragment, Escherichia coli K-12, UniProt P38038 52-599, looked up)
chain: AATPAPAAEMPGITIISASQTGNARRVAEALRDDLLAAKLNVKLVNAGDYKFKQIASEKLLIVVTSTQGEGEPPEEAVALHKFLFSKKAPKLENTAFAVFSLGDSSYEFFCQSGKDFDSKLAELGGERLLDRVDADVEYQAAASEWRARVVDALKSRAPVVATGAVNEIHTSPYSKDAPLVASLSVNQKITGRNSEKDVRHIEIDLGDSGMRYQPGDALGVWYQNDPALVKELVELLWLKGDEPVTVEGKTLPLNEALQWHFELTVNTANIVENYATLTRSETLLPLVGDKAKLQHYAATTPIVDMVRFSPAQLDAEALINLLRPLTPRLYSIASSQAEVENEVHVTVGVVRYDVEGRARAGGASSFLADRVEEEGEVRVFIEHNDNFRLPANPETPVIMIGPGTGIAPFRAFMQQRAADEAPGKNWLFFGNPHFTEDFLYQVEWQRYVKDGVLTRIDLAWSRDQKEKVYVQDKLREQGAELWRWINDGAHIYVCGDANRMAKDVEQALLEVIAEFGGMDTEAADEFLSELRVERRYQRDVY
B3: SiRFP-43: sulfite reductase flavoprotein amino acids 237-599 (domain or fragment, Escherichia coli K-12, UniProt P38038 237-599, looked up)
chain: LVASLSVNQKITGRNSEKDVRHIEIDLGDSGMRYQPGDALGVWYQNDPALVKELVELLWLKGDEPVTVEGKTLPLNEALQWHFELTVNTANIVENYATLTRSETLLPLVGDKAKLQHYAATTPIVDMVRFSPAQLDAEALINLLRPLTPRLYSIASSQAEVENEVHVTVGVVRYDVEGRARAGGASSFLADRVEEEGEVRVFIEHNDNFRLPANPETPVIMIGPGTGIAPFRAFMQQRAADEAPGKNWLFFGNPHFTEDFLYQVEWQRYVKDGVLTRIDLAWSRDQKEKVYVQDKLREQGAELWRWINDGAHIYVCGDANRMAKDVEQALLEVIAEFGGMDTEAADEFLSELRVERRYQRDVY

molecular target: T1, Escherichia coli sulfite reductase …; assay: cryo-EM structure

Binding result, binds:
B1
B2
B3
